Assays:
[1] = target: T1, Hepsin (human), recombinant, active (human, UniProt P05981 45-417); experiment: phage competition ELISA: biotin-hepsin immobilised on NeutrAvidin plates, bound Fab25-phage detected with anti-M13-HRP, KD1 titrated as competitor of Fab25-phage
T1 construct: In the Octet and ELISA assays it was biotinylated with Sulfo-NHS-LC-Biotin; also called human hepsin; active hepsin

[2] = target: mouse hepsin extracellular domain (Ser45-Pro416) with C-terminal His-tag (mouse) (UniProt O35453)
[3] = target: T1, Hepsin (human), recombinant, active; experiment: cell-based or functional assay
[4] = target: T1, Hepsin (human), recombinant, active; experiment: cell-based or functional assay; remark: listed apart in the source
[5] = target: T1, Hepsin (human), recombinant, active; experiment: enzyme inhibition, S2765 substrate (ratio of Ki app)
Procedure: (§1) Enzymatic assays with synthetic substrates: Fab25, IgG25, control Fab, or control IgG were incubated with hepsin (1 nM for human and 2 nM for mouse hepsin) in Hepes buffer (20 mM Hepes, pH 7.5, 150 mM NaCl, 5 mM CaCl₂, 0.01% Triton X-100) for 40 min at room temperature. For experiments with 3,4-dichloro-isocoumarin (DCI), hepsin (1 nM) was incubated with DCI in Hepes buffer containing 0.5% DMSO for 40 min. S2765 was added (final concentration of 0.2 mM) and the linear rates of the increase in absorbance at 405 nm measured on a kinetic microplate reader (Versamax, Molecular Devices, Sunnyvale, Calif.). Data were expressed as fractional enzyme activity (vᵢ/vₒ) and fitted to a four parameter regression curve fitting program (Kaleidagraph Version 3.6, Synergy Software) to determine the IC₅₀ values. Values are the average±SD of three independent experiments. Kᵢ^app values for Fab25 and IgG25 were calculated by fitting the data to the equation for tight binding inhibition systems (Morrison, 1969; Olivero et al., 2005).

[6] = target: T1, Hepsin (human), recombinant, active; experiment: isothermal titration calorimetry, Fab25 titrated into active hepsin
Procedure: FIG. 18: Isothermal titration calorimetric experiment of Fab25 binding to active hepsin. The association reaction is exothermic and the stoichiometry of binding is 1:1 as expected.
Isothermal Titration calorimetry: TC experiments were performed on a ITC₂₀₀ instrument (GE healthcare). Fab25 and hepsin were purified separately on a size exclusion chromatographic column (Superdex S200, GE healthcare), using a buffer containing 50 mM HEPES pH 7.5 and 150 mM NaCl. The sample cell (204 μl) was loaded with hepsin (14 μM) and the Fab25 concentration in the syringe was 138 μM. A titration experiment typically consisted of 20 injections, each of 2 μL volume and 180 sec duration, with a 3 min interval between additions. The stirring rate was 1000 rpm. Raw data were integrated, corrected for nonspecific heats, normalized for concentration, and analyzed according to a 1:1 binding model assuming a single set of identical binding sites. (The isothermal titration curve was registered and analyzed using ORIGIN software provided with the ITC instrument. The data were integrated to provide a titration curve; and, by using a nonlinear least-squares fit, the binding constant KA, the heat of binding (ΔH), and the stoichiometry of binding were extracted from the curve.

[7] = target: T1, Hepsin (human), recombinant, active; experiment: BLI (Octet RED), biotinylated hepsin on streptavidin sensor, Fab25 in solution, 1:1 fit
Procedure: Fab25 binding to hepsin: An Octet-RED system equipped with streptavidin SBC biosensor tips was purchased from ForteBio (Menlo Park, Calif.). Prior to the start of the experiment, the sensor tips were pre-wet for 15 minutes at 25° C. in a buffer containing 50 mM Hepes pH 7.5, 150 mM NaCl and 0.05% tween-20. Biotinylated hepsin (7.5 μg/ml) was captured on to the streptavidin sensor for 5 minutes with agitation at 1000 rpm. The sensors were briefly washed in buffer before dipping them on to the sample wells containing Fab25 (2-fold serial dilution starting from 200 nM) and buffer control. Association was monitored for 10 minutes and dissociation was followed for 30 minutes. The data was fit to 1:1 binding model using Octet-RED analysis software.

[8] = target: mouse hepsin extracellular domain (Ser45-Pro416) with C-terminal His-tag (mouse) (UniProt O35453); experiment: enzyme inhibition, S2765 substrate, tight binding inhibition fit (Ki app); Fab25, murine hepsin
[9] = target: T1, Hepsin (human), recombinant, active; experiment: enzyme inhibition, S2765 substrate, tight binding inhibition fit (Ki app); Fab25, human hepsin
Procedure: as §1

pro-hepsin = pro-hepsin (UniProt P05981 45-417, limits assumed); experiment: SPR (BIAcore 3000), Ab25 captured on CM5 chip, pro-hepsin injected, steady state analysis
Procedure: (§2) FIG. 17: A. Surface plasmon resonance was used to measure the binding affinity of Ab25 with active human hepsin. Serial dilutions of hepsin (0.39 nM to 200 nM) were injected to a CM5 biosensor chip with captured Ab25 for 3 minutes and the dissociation was monitored for 15 minutes. […] Serial dilutions of pro-hepsin (195 nM to 80 μM) were injected to a CM5 biosensor chip with captured Ab25 for 2 minutes.
(§3) Binding of Ab25 to hepsin by surface plasmon resonance: Surface plasmon resonance measurements were performed on a BIAcore™-3000 instrument (GE Health Care, NJ) to determine binding affinity of the Ab25. Rabbit anti-human IgG were chemically immobilized (amine coupling) on CM5 biosensor chips and Ab25 was captured to give approximately 350 response units (RU). For kinetics measurements, two-fold serial dilutions of active hepsin (1 nM to 500 nM) were injected in HBS-P buffer at 25° C. with a flow rate of 30 μl/min. Association rates (kₐ) and dissociation rates (kd) were obtained by using a simple one-to-one Langmuir binding model (BIA-Evaluation) and the equilibrium dissociation constants (KD) were calculated (kd/kₐ). Due to rapid kinetics, a steady state measurement was used to determine the affinity of pro-hepsin with Ab25. […] The values of Req were calculated and plotted individually against C (concentration of pro-hepsin) using BIA-Evaluation to determine KD.

[10] = target: T1, Hepsin (human), recombinant, active; experiment: SPR (BIAcore 3000), Ab25 captured by anti-human IgG on CM5 chip, active human hepsin injected, 1:1 fit
Procedure: as §2, §3

[11] = target: T1, Hepsin (human), recombinant, active; experiment: enzyme inhibition, S2765 substrate, tight binding inhibition fit (Ki app); IgG25, not Fab; human hepsin
Procedure: as §1

T1 sequence (P05981 45-417 limits assumed): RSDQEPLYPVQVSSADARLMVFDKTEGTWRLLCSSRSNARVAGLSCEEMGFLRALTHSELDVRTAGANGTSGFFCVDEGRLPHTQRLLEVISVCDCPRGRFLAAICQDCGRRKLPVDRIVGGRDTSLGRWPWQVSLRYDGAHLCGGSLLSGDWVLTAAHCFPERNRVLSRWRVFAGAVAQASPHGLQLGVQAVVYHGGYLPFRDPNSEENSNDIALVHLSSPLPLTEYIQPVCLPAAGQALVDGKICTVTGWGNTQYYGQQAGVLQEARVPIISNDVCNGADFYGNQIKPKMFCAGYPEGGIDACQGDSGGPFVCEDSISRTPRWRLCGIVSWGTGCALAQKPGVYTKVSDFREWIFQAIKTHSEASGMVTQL
pro-hepsin, sequence (P05981 45-417 limits assumed): as above

B1: Kunitz domain inhibitor-1 (KD1) derived from HGFA-inhibitor-1 (HAI-1) (other, UniProt O43278 246-303, looked up)
chain: TEDYCLASNKVGRCRGSFPRWYYDPTEQICKSFVYGGCLGNKNNYLREEECILACRGV
Question: Which “IC50 (read off the curve)” value [1] does the source give for B1 here?
Answer: ~0.2 nM

B2: anti-hepsin antibody Fab25 (Fab, V domains shown)
VH: EVQLVESGGGLVQPGGSLRLSCAASGFNFSYSYMHWVRQAPGKGLEWVASIYSYYGSTYYADSVKGRFTISADTSKNTAYLQMNSLRAEDTAVYYCARSDSWSYKSGYTQKIYSKGLDYWGQGTLVTVSS
VL: DIQMTQSPSSLSASVGDRVTITCRASQSVSSAVAWYQQKPGKAPKLLIYSASSKGVPSRFSGSRSGTDFTLTISSLQPEDFATYYCQQYYSSYYLLTFGQGTKVEIK
notes: also called HpsFab25; Clone 25 (Fab form)
Question: B2 was tested. Which IC50 (read off the curve) [2] did it give?
Answer: 300 nM

Question: What about the “IC50 of hepsin-mediated pro-uPA activation (two-stage enzymatic assay)” value [3] of the same binder?
Answer: 3.3 nM

Question: What about the “IC50 (read off the curve)” value [4] of the same binder?
Answer: ~5 nM

Question: And the “fold more potent inhibition than of murine hepsin” value [5]?
Answer: ~80 fold

Question: What about the Kd [6] of the same binder?
Answer: 6.1 nM

Question: And the stoichiometry of binding [6]?
Answer: 1 Fab25 per hepsin

Question: And the Kd [7]?
Answer: 2.55 nM

Question: What about the Ki [8] of the same binder?
Answer: 329 nM

Question: What about the Ki [9] of the same binder?
Answer: 4.1 nM

B3: anti-hepsin antibody IgG25 (antibody, V domains shown)
VH: EVQLVESGGGLVQPGGSLRLSCAASGFNFSYSYMHWVRQAPGKGLEWVASIYSYYGSTYYADSVKGRFTISADTSKNTAYLQMNSLRAEDTAVYYCARSDSWSYKSGYTQKIYSKGLDYWGQGTLVTVSS
VL: DIQMTQSPSSLSASVGDRVTITCRASQSVSSAVAWYQQKPGKAPKLLIYSASSKGVPSRFSGSRSGTDFTLTISSLQPEDFATYYCQQYYSSYYLLTFGQGTKVEIK
notes: also called Ab25; mab 25
Question: With B3 as the binder, how does the Kd (pro-hepsin) read?
Answer: 5520 nM

Question: What about the Kd [10] of the same binder?
Answer: 10.6 nM

Question: And the Ki [11]?
Answer: 11.3 nM

From US20110262452A1 (Genentech, published 2011)
